According to US20230295258A1 (KANAPH THERAPEUTICS, published 2023):

Molecular target: IL-12 receptor of human T cells (human, UniProt P42701 24-662; Q99665 24-862)
Test: cell-based or functional assay

Sequence of IL-12 receptor of human T cells (Q99665 24-862, chain 2 of 2, other chains not shown): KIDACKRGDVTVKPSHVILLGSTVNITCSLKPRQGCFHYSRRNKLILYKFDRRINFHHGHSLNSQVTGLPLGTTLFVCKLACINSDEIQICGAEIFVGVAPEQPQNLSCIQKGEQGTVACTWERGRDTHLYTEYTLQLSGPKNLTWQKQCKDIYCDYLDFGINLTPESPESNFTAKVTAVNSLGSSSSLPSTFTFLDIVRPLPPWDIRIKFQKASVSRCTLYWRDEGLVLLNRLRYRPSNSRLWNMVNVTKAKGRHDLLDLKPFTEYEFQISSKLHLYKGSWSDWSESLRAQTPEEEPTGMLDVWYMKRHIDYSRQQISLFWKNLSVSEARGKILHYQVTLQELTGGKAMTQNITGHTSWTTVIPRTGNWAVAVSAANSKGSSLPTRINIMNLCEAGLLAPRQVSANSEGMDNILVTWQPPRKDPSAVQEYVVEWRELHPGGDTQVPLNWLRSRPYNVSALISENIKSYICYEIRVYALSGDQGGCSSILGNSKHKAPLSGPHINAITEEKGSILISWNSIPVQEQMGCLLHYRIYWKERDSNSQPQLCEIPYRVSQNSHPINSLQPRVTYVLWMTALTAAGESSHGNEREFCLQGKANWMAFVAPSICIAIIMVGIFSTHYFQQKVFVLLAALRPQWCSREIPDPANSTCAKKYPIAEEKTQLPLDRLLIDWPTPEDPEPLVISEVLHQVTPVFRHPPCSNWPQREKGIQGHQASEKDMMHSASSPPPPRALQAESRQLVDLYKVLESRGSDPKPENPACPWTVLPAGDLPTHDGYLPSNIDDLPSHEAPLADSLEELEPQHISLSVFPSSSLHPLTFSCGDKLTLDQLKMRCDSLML

| Binder | change of the p-STAT4 EC50 in human T cells with low molecular weight heparin against without [times] | half maximal effective concentration (EC50) of p-STAT4 (Tyr693) in activated human T cells, AlphaLISA [nM] |
| --- | --- | --- |
| T1.02 (anti-hu FAP/hu IL-12 mut1, hu IgG1 DANG) (bispecific antibody) heavy: QVQLVQSGAEVKKPGASVKVSCKTSRYTFTEYTIHWVRQAPGQRLEWIGGINPNNGIPNYNQKFKGRVTITVDTSASTAYMELSSLRSEDTAVYYCARRRIAYGYDEGHAMDYWGQGTLVTVSSASTKGPSVFPLAPSSKSTSGGTAALGCLVKDYFPEPVTVSWNSGALTSGVHTFPAVLQSSGLYSLSSVVTVPSSSLGTQTYICNVNHKPSNTKVDKKVEPKSCDKTHTCPPCPAPELLGGPSVFLFPPKPKDTLMISRTPEVTCVVVAVSHEDPEVKFNWYVDGVEVHNAKTKPREEQYGSTYRVVSVLTVLHQDWLNGKEYKCKVSNKALPAPIEKTISKAKGQPREPQVYTLPPSRDELTKNQVSLWCLVKGFYPSDIAVEWESNGQPENNYKTTPPVLDSDGSFFLYSKLTVDKSRWQQGNVFSCSVMHEALHNHYTQKSLSLSPGK light: not shown not shown | 5.5 | 0.0565 |
| T1.03 (anti-hu FAP/hu IL-12 mut2, hu IgG1 DANG) (bispecific antibody) heavy: QVQLVQSGAEVKKPGASVKVSCKTSRYTFTEYTIHWVRQAPGQRLEWIGGINPNNGIPNYNQKFKGRVTITVDTSASTAYMELSSLRSEDTAVYYCARRRIAYGYDEGHAMDYWGQGTLVTVSSASTKGPSVFPLAPSSKSTSGGTAALGCLVKDYFPEPVTVSWNSGALTSGVHTFPAVLQSSGLYSLSSVVTVPSSSLGTQTYICNVNHKPSNTKVDKKVEPKSCDKTHTCPPCPAPELLGGPSVFLFPPKPKDTLMISRTPEVTCVVVAVSHEDPEVKFNWYVDGVEVHNAKTKPREEQYGSTYRVVSVLTVLHQDWLNGKEYKCKVSNKALPAPIEKTISKAKGQPREPQVYTLPPSRDELTKNQVSLWCLVKGFYPSDIAVEWESNGQPENNYKTTPPVLDSDGSFFLYSKLTVDKSRWQQGNVFSCSVMHEALHNHYTQKSLSLSPGK light: not shown not shown | 4 | 0.147 |
| T1.01 (anti-hu FAP/hu IL-12, hu IgG1 DANG) (bispecific antibody) heavy: QVQLVQSGAEVKKPGASVKVSCKTSRYTFTEYTIHWVRQAPGQRLEWIGGINPNNGIPNYNQKFKGRVTITVDTSASTAYMELSSLRSEDTAVYYCARRRIAYGYDEGHAMDYWGQGTLVTVSSASTKGPSVFPLAPSSKSTSGGTAALGCLVKDYFPEPVTVSWNSGALTSGVHTFPAVLQSSGLYSLSSVVTVPSSSLGTQTYICNVNHKPSNTKVDKKVEPKSCDKTHTCPPCPAPELLGGPSVFLFPPKPKDTLMISRTPEVTCVVVAVSHEDPEVKFNWYVDGVEVHNAKTKPREEQYGSTYRVVSVLTVLHQDWLNGKEYKCKVSNKALPAPIEKTISKAKGQPREPQVYTLPPSRDELTKNQVSLWCLVKGFYPSDIAVEWESNGQPENNYKTTPPVLDSDGSFFLYSKLTVDKSRWQQGNVFSCSVMHEALHNHYTQKSLSLSPGK light: not shown not shown | 9.4 | 0.0145 |
